Assay results reported in PMC9319256, “Human Enzyme PADI4 Binds to the Nuclear Carrier Importin α3” (Cells, 2022).

Key:
[1] = target: human importin α3 (Impα3), intact (human); test: BLI; BLItz; His-tagged Impα3 or ΔImpα3 immobilised on His-tag biosensors at 0.3 µM; peptides 1-7 µM; manufacturer's buffer; 25 °C; pseudo-first-order plots; apparent
[2] = target: ΔImpα3, truncated importin α3 lacking the importin β-binding (IBB) domain (human); test: as above
[3] = target: human importin α3 (Impα3), intact (human); test: other fluorescence titration; peptide 0-20 µM added to 3 µM Impα3 or ΔImpα3; 20 mM Tris pH 7.5, 5 mM TCEP, 150 mM NaCl, 5% glycerol; 25 °C; fluorescence at 330 nm
[4] = target: ΔImpα3, truncated importin α3 lacking the importin β-binding (IBB) domain (human); test: as above
[5] = target: human importin α3 (Impα3), intact (human); test: ITC; PADI4 or peptide (100 µM) in the syringe titrated into importin (10 µM) in the cell; 20 mM Tris pH 7.5, 5 mM TCEP, 150 mM NaCl, 5% glycerol; 25 °C; single-site model
[6] = target: ΔImpα3, truncated importin α3 lacking the importin β-binding (IBB) domain (human); test: as above

Sequence of human importin α3 (Impα3), intact (human) (O00629 whole entry, the tested form may be a part): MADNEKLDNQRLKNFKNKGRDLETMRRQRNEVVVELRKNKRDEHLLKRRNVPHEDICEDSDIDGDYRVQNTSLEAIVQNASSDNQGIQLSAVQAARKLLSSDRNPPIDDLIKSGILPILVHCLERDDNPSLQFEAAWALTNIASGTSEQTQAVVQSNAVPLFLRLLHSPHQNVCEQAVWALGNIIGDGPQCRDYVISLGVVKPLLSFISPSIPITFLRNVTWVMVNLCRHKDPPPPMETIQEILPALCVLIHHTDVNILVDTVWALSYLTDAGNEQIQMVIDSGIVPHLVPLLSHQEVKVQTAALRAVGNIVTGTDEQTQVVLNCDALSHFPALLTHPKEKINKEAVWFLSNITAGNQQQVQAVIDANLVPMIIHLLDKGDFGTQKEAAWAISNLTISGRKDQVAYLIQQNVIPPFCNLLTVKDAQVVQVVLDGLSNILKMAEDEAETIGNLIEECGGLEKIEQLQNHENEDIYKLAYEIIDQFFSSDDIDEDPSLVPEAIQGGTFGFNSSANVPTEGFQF

Binder: Ac-YKLFQEQQNEGHGEALLFEGIKKKKQQKI-NH2 [NLS2-PADI4 peptide]
- Kd [1]: 99 µM
- koff [1]: 0.32 s⁻¹
- kon [1]: 3000 M⁻¹ s⁻¹
- Kd [2]: 12 µM
- koff [2]: 0.23 s⁻¹
- kon [2]: 20000 M⁻¹ s⁻¹
- Kd [3]: 4 µM
- Kd [4]: 4 µM
- Ka [5]: 43000 M⁻¹
- Kd [5]: 23 µM
- dH [5]: -35.7 kcal/mol
- stoichiometry N [5]: 1.08
- Ka [6]: 230000 M⁻¹
- Kd [6]: 4.3 µM
- dH [6]: -11.2 kcal/mol
- stoichiometry N [6]: 1.1
